Patent US20130195859

Test system: plasma derived alpha-1 antitrypsin (AAT)

recombinant active caspase-1
caspase-1 activity (in arbitrary units), colorimetric substrate, in vitro with recombinant active caspase-1: AAT has a direct inhibitory effect on caspase-1 activity in vitro
